Measurements published in PMC6179994.

Molecular target: full-length rabbit TRPV5 (transient receptor potential vanilloid 5) (rabbit) (UniProt Q9XSM3)
Assay: cryo-EM structure; detergent solubilized TRPV5 (DMNG) incubated 1 h with 10 mM CaCl2 and rat CaM at 1:20 (TRPV5 tetramer:CaM), then SEC; map at 4.4 Å without applied symmetry

Sequence of full-length rabbit TRPV5 (transient receptor potential vanilloid 5) (rabbit) (Q9XSM3 whole entry): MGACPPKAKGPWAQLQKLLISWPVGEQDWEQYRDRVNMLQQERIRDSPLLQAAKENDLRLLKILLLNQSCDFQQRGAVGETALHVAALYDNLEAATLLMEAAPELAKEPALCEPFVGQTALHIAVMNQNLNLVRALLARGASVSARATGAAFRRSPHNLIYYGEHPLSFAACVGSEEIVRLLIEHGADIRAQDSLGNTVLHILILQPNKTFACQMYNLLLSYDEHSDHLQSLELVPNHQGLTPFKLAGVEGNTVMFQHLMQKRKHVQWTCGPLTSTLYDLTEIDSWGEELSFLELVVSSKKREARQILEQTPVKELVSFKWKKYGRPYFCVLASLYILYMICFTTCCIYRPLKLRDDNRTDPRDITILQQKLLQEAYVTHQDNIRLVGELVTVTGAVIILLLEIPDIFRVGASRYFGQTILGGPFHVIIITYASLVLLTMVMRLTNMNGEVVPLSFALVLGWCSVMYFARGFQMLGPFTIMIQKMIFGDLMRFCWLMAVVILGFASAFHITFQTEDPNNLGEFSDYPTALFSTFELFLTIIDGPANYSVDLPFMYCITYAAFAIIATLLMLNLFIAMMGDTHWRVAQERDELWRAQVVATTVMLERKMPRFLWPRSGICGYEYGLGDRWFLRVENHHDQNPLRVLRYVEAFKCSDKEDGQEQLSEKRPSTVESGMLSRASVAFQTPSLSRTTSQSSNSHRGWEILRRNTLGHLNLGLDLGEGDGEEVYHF

stoichiometry N (CaM per TRPV5 tetramer): 1
Substance: rat calmodulin (CaM), calcium-activated (from UniProt P0DP29 1-149) (natural protein)
